Measurements reported in article PMC7078208, “Interaction of SHP-2 SH2 domains with PD-1 ITSM induces PD-1 dimerization and SHP-2 activation” (Communications Biology, 2020).
Values belong to the compound of their own block, whether it stands above or below them. Square brackets hold non-standard residues; d marks the D form. Ends that are not written are not given here. pY = N[C@@H](Cc1ccc(OP(=O)(O)O)cc1)C(=O)O

How the values were obtained:
[1] = molecular target: T1, t-SHP-2 (SHP-2 tandem SH2 domains, amino acids 1-225) (Homo sapiens, UniProt Q06124); test: Isothermal titration calorimetry of PD-1 phosphopeptides with t-SHP-2; assay type: binding; conditions: for Kd: ITC, MicroCal ITC200, peptide 50-100 µM titrated into t-SHP-2 3-5 µM, 19 injections, 20 °C, 50 mM HEPES pH 7.4, 100 mM NaCl, 5 mM TCEP
T1 construct: made in house
T1 sequence (Q06124 1-225): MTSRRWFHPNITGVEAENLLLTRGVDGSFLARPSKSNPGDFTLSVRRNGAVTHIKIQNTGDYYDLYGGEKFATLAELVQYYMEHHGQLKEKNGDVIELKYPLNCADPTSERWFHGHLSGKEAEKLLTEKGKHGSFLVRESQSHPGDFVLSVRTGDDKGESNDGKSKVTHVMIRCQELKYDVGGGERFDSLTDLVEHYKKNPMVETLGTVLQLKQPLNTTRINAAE
Protocol: Isothermal titration calorimetry (ITC) was performed on a MicroCal ITC200 instrument (Malvern, Worcestershire, UK), using established methodology. Briefly, PD-1 phosphopeptides (PD-1cyto-pITIM-pITSM, PD-1cyto-ITIM-pITSM and PD-1cyto-pITIM-ITSM) and SHP-2 tandem-SH2 protein (t-SHP-2) were prepared in buffer containing 50 mM HEPES pH 7.4, 100 mM NaCl, 5 mM TCEP. Each peptide (50–100 µM) was titrated into a t-SHP-2 sample (3–5 µM) in a total of 19 injections at 20^ oC. We used reference power 6.0, initial delay 60 s and stirring speed 750 rpm. Injection volume was 0.4 µl for first injection and 2 µl for subsequent injections, injection duration was 0.8 s for first injection and 4 s for subsequent injections, with 150 s spacing and 5 s filter period. Reference cell was filled with sterile Milli-Q water. Controls of peptide titrations into buffer were run for baseline corrections. Data analysis was done using Origin 7.0 software.

[2] = system: PD-1-SmBiT: PD-1-LgBiT complex (PD-1: PD-1 interaction) in HEK-293 cells; test: NanoBiT assay for PD-1 dimerization in HEK-293 cells; assay type: cell-based, human; conditions: HEK-293 transfected with PD-1-SmBiT, active Fyn and SHP-2, increasing amounts, Fig. 4e
[3] = molecular target: SHP-2 wild-type full-length, purified recombinant protein (UniProt Q06124)
[4] = molecular target: t-SHP-2 (SHP-2 amino acids 1-225, tandem N-SH2 and C-SH2 domains) (UniProt Q06124); test: ITC; MicroCal ITC200; peptide (50-100 uM) titrated into t-SHP-2 (3-5 uM), 19 injections, 20 C; 50 mM HEPES pH 7.4, 100 mM NaCl, 5 mM TCEP
SHP-2-WT = test: SHP-2 phosphatase activity, DiFMUP substrate; assay type: biochemical
SHP-2-full-length = molecular target: T2, SHP-2-full-length (Homo sapiens, UniProt Q06124); test: SPR: SHP-2-full-length binding to immobilized PD-1 phosphopeptides; conditions: identical conditions as for ITSM-pY248 surface
T2 construct: glutathione-S-transferase (GST) fusions to SHP-2 wild-type full-length (SHP-2-WT-FL) using the pGEX 4T-3 vector; GST (N, cleaved yes); made in house; host or cells: E. coli BL21(D3)LysS
T2 sequence (Q06124 1-593): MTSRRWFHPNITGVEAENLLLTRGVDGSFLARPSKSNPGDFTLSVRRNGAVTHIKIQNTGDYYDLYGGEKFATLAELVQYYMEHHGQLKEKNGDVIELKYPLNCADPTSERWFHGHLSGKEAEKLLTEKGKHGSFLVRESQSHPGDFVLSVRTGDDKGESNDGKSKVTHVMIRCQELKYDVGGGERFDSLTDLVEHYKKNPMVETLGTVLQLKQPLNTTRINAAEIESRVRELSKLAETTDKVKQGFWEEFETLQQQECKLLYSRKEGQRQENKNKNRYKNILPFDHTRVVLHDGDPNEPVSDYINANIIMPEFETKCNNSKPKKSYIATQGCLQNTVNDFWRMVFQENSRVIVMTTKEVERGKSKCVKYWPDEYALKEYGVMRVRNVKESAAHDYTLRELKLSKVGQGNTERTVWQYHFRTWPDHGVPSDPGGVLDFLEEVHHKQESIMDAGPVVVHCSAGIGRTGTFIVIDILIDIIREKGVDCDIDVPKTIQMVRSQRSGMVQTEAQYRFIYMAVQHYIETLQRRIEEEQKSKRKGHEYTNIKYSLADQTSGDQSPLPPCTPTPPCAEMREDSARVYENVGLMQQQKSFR

SHP-2 [5] = molecular target: SHP-2 (UniProt Q06124); test: PD-1 IP, SHP-2 blot; conditions: reference: PD-1 wild type; sites Y248
SHP-2 [6] = molecular target: SHP-2 (UniProt Q06124); test: PD-1 IP, FLAG (SHP-2) blot; conditions: reference: PD-1 wild type; sites Y248
PD1LgDM = test: NanoBiT proximity assay (split luciferase) in HEK-293 cells; conditions: PD1SmDM + PD1LgDM + SHP2WT, read off a plot
PD1LgY223F = test: as above; conditions: PD1SmY223F + PD1LgY223F + SHP2WT, Fyn (-) kinase inactive; parent: est. 100; read off a plot
PD1LgY248F = test: as above; conditions: PD1SmY248F + PD1LgY248F + SHP2WT, Fyn (-) kinase inactive; parent: est. 100; read off a plot
SHP-2 1-225 [7] = molecular target: SHP-2 1-225 (UniProt Q06124); test: native PAGE mobility shift; conditions: reference: PD-1cyto-pITIM-pITSM (pY223 + pY248)
SHP-2 1-225 [8] = molecular target: SHP-2 1-225 (UniProt Q06124); test: ITC; conditions: reference: PD-1cyto-pITIM-pITSM (pY223 + pY248); sites Y248

Compound: CC[C@H](C)[C@H](NC(=O)[C@@H](NC(=O)[C@H](C)NC(=O)[C@H](Cc1ccc(OP(=O)(O)O)cc1)NC(=O)[C@H](CCC(=O)O)NC(=O)[C@@H](NC(=O)[C@H](CCC(N)=O)NC(=O)[C@H](CCC(=O)O)NC(=O)[C@@H]1CCCN1C(=O)[C@@H](NC(=O)[C@H](CS)NC(=O)[C@@H]1CCCN1C(=O)[C@@H](NC(=O)[C@@H]1CCCN1C(=O)[C@@H]1CCCN1C(=O)[C@H](CCC(=O)O)NC(=O)[C@@H]1CCCN1C(=O)[C@@H](NC(=O)[C@H](CCCCN)NC(=O)[C@H](CCC(=O)O)NC(=O)[C@H](CCCNC(=N)N)NC(=O)[C@H](Cc1c[nH]c2ccccc12)NC(=O)[C@H](CCC(N)=O)NC(=O)[C@H](Cc1ccccc1)NC(=O)[C@H](CC(=O)O)NC(=O)[C@H](CC(C)C)NC(=O)[C@H](CCC(=O)O)NC(=O)CNC(=O)[C@H](Cc1ccc(O)cc1)NC(=O)[C@H](CC(=O)O)NC(=O)[C@@H](NC(=O)[C@H](CO)NC(=O)[C@H](Cc1ccccc1)NC(=O)[C@@H](NC(=O)[C@@H]1CCCN1C(=O)[C@@H](NC(=O)[C@H](C)NC(=O)[C@@H](N)CO)C(C)C)C(C)C)C(C)C)[C@@H](C)O)C(C)C)C(C)C)[C@@H](C)O)[C@@H](C)O)C(=O)N[C@H](C(=O)N[C@@H](Cc1ccccc1)C(=O)N1CCC[C@H]1C(=O)N[C@@H](CO)C(=O)O)C(C)C [PD-1cyto-ITIM-pITSM]
- Kd [1]: 775 nM

Compound: CC[C@H](C)[C@H](NC(=O)[C@@H](NC(=O)[C@H](C)NC(=O)[C@H](Cc1ccc(OP(=O)(O)O)cc1)NC(=O)[C@H](CCC(=O)O)NC(=O)[C@@H](NC(=O)[C@H](CCC(N)=O)NC(=O)[C@H](CCC(=O)O)NC(=O)[C@@H]1CCCN1C(=O)[C@@H](NC(=O)[C@H](CS)NC(=O)[C@@H]1CCCN1C(=O)[C@@H](NC(=O)[C@@H]1CCCN1C(=O)[C@@H]1CCCN1C(=O)[C@H](CCC(=O)O)NC(=O)[C@@H]1CCCN1C(=O)[C@@H](NC(=O)[C@H](CCCCN)NC(=O)[C@H](CCC(=O)O)NC(=O)[C@H](CCCNC(=N)N)NC(=O)[C@H](Cc1c[nH]c2ccccc12)NC(=O)[C@H](CCC(N)=O)NC(=O)[C@H](Cc1ccccc1)NC(=O)[C@H](CC(=O)O)NC(=O)[C@H](CC(C)C)NC(=O)[C@H](CCC(=O)O)NC(=O)CNC(=O)[C@H](Cc1ccc(OP(=O)(O)O)cc1)NC(=O)[C@H](CC(=O)O)NC(=O)[C@@H](NC(=O)[C@H](CO)NC(=O)[C@H](Cc1ccccc1)NC(=O)[C@@H](NC(=O)[C@@H]1CCCN1C(=O)[C@@H](NC(=O)[C@H](C)NC(=O)[C@@H](N)CO)C(C)C)C(C)C)C(C)C)[C@@H](C)O)C(C)C)C(C)C)[C@@H](C)O)[C@@H](C)O)C(=O)N[C@H](C(=O)N[C@@H](Cc1ccccc1)C(=O)N1CCC[C@H]1C(=O)N[C@@H](CO)C(=O)O)C(C)C [PD-1cyto-pITIM-pITSM]
- Kd [1]: 15.9 nM

Compound: CC1(N)CCN(c2cnc(-c3cccc(Cl)c3Cl)c(N)n2)CC1 [SHP099]
- effect on PD-1: PD-1 interaction [2]: dose-dependent inhibition of PD-1: PD-1 interaction

- potency in inducing SHP-2 phosphatase activity relative to the bisphosphoryl peptide bpIRS [3]: 3 fold
Compound: Bisphosphoryl ITSM peptide pITSM-Ahx4-pITSM (bpITSM)

- stoichiometry N (peptide per t-SHP-2) [4]: 1
Compound: Bisphosphoryl peptide of native sequence of PD-1 cytoplasmic tail (PD-1cyto-pITIM-pITSM)

- increase in the catalytic activity of SHP-2 compared to negative control pIRSY727 (SHP-2-WT; DiFMUP substrate, Fig. 5a): did not induce an increase
- specific interaction of SHP-2 protein with peptide-coated surface (SHP-2-full-length): no specific interaction
Compound: KEDPSAVPVFSVD[pY]GELDFQWRE [pITIM, monophosphorylated human PD-1 ITIM-pY223 phosphopeptide]
- effect on SHP-2 activation induced by bpITSM (competition) (SHP-2-WT; bpITSM 0.01 µM with increasing amounts of monophosphorylated peptide, Fig. 5d): only when added at very high molar concentrations (1000x excess of bpITSM)

- stoichiometry N (peptide per t-SHP-2) [4]: 2
Compound: Monophosphoryl peptide of native sequence of PD-1 cytoplasmic tail (PD-1cyto-ITIM-pITSM)

- binding against the reference (SHP-2 [5]): lost
- binding against the reference (SHP-2 [6]): lost
Compound: PD-1 (from UniProt Q15116) PD-1 Y248F

- response (PD1LgDM; Fyn (+) kinase active, parent: est. 255): 90 RLU
Compound: PD-1 NanoBiT fusions (PD-1-LgBiT and PD-1-SmBiT) in HEK-293 cells with kinase-active Fyn (from UniProt Q15116) DM

- response (PD1LgDM; Fyn (-) kinase inactive, parent: est. 100): 88 RLU
Compound: PD-1 NanoBiT fusions (PD-1-LgBiT and PD-1-SmBiT) in HEK-293 cells with kinase-inactive Fyn (from UniProt Q15116) DM

- response (PD1LgY223F): 90 RLU
Compound: PD-1 NanoBiT fusions (PD-1-LgBiT and PD-1-SmBiT) in HEK-293 cells with kinase-inactive Fyn (from UniProt Q15116) Y223F

- response (PD1LgY248F): 80 RLU
Compound: PD-1 NanoBiT fusions (PD-1-LgBiT and PD-1-SmBiT) in HEK-293 cells with kinase-inactive Fyn (from UniProt Q15116) Y248F

- binding against the reference (SHP-2 1-225 [7]; sites Y223): same
Compound: PD-1 cytoplasmic tail peptide (from UniProt Q15116) PD-1cyto-ITIM-pITSM (pY248 only)

- KD (SHP-2 1-225 [8]): lost; reference 0.0159
- binding against the reference (SHP-2 1-225 [7]; sites Y248): lost
Compound: PD-1 cytoplasmic tail peptide (from UniProt Q15116) PD-1cyto-pITIM-ITSM (pY223 only)

- peptide: t-SHP-2 interaction by ITC ([1]; same conditions): not detectable
Compound: SAVPVFSVD(pY)GELDFQWREKTPEPPVPCVPEQTEYATIVFPS (SAVPVFSVD[pY]GELDFQWREKTPEPPVPCVPEQTEYATIVFPS) [PD-1cyto-pITIM-ITSM]

Compound: TE(pY)ATIVFP-Ahx10-QTE(pY)ATIVFPS [bpITSM-Ahx10, bisphosphoryl ITSM peptide with 10-Ahx spacer]
- catalytic activity of SHP-2 compared to the negative control pIRSY727 (SHP-2-WT; 3x lower enzyme concentration (0.5 µg/ml SHP-2-WT), Fig. 5e): caused a higher increase in SHP-2 activation

- peptide concentration at which catalytic activity of SHP-2 is increased (SHP-2-WT; DiFMUP substrate, compared to pIRSY727 and pIRSY1172, Fig. 5a): above 1 µM
Compound: VD(pY)GELDFQ-Ahx4- QTE(pY)ATIVFPS [pITIM-pITSM, bisphosphoryl ITIM-ITSM peptide with 4-Ahx spacer]

- increase in the catalytic activity of SHP-2 compared to negative control pIRSY727 (SHP-2-WT; DiFMUP substrate, Fig. 5a): did not induce an increase
Compound: VD(pY)GELDFQ-Ahx4-SVD(pY)GELDFQW [bpITIM, bisphosphoryl ITIM-ITIM peptide with 4-Ahx spacer]
